According to PMC6182155 (Nucleic Acids Research, 2018):

Legend:
SEC = molecular target: the molecule itself; assay: SEC
crystal structure = molecular target: the molecule itself; assay: crystal structure

B1: EcoKMcrA with C-terminal His6-tag (EcoKMcrA_(1-277)-GHHHHHHG), wild type (enzyme, E. coli (K strains), UniProt P24200 1-277, looked up)
chain: MHVFDNNGIELKAECSIGEEDGVYGLILESWGPGDRNKDYNIALDYIIERLVDSGVSQVVVYLASSSVRKHMHSLDERKIHPGEYFTLIGNSPRDIRLKMCGYQAYFSRTGRKEIPSGNRTKRILINVPGIYSDSFWASIIRGELSELSQPTDDESLLNMRVSKLIKKTLSQPEGSRKPVEVERLQKVYVRDPMVKAWILQQSKGICENCGKNAPFYLNDGNPYLEVHHVIPLSSGGADTTDNCVALCPNCHRELHYSKNAKELIEMLYVNINRLQK
**Q.** Which “stoichiometry N” value (SEC) does the source give for B1 here?
**A.** 2

B2: EcoKMcrA K196E variant with N-terminal His6-tag (…-EcoKMcrA_(1-277)) (enzyme, E. coli (K strains), UniProt P24200 1-277, looked up)
chain: MHVFDNNGIELKAECSIGEEDGVYGLILESWGPGDRNKDYNIALDYIIERLVDSGVSQVVVYLASSSVRKHMHSLDERKIHPGEYFTLIGNSPRDIRLKMCGYQAYFSRTGRKEIPSGNRTKRILINVPGIYSDSFWASIIRGELSELSQPTDDESLLNMRVSKLIKKTLSQPEGSRKPVEVERLQKVYVRDPMVEAWILQQSKGICENCGKNAPFYLNDGNPYLEVHHVIPLSSGGADTTDNCVALCPNCHRELHYSKNAKELIEMLYVNINRLQK
**Q.** Does B2 bind (crystal structure)?
**A.** binds
